From PMC3035719

What was measured:
[1] = biological target: MBP-DGKδSAM-H38A/V52E; test: SPR
[2] = biological target: MBP-DGKδSAM-V52E (UniProt Q16760); test: SPR

## MBP-DGKδSAM-E35G (domain or fragment)
[1]
  Kd: 23 µM
[2]
  Kd: 12.2 µM
